Several values for one entry are separate records, joined by “and”; a condition that tells them apart may be missing. Equal values may be shown once.
Assays:
Test in all cases: cell-based or functional assay
[1] = target: spike protein of SARS-CoV-2 strain Victoria (SARS-CoV-2/human/AUS/VIC01/2020) (SARS-CoV-2, UniProt P0DTC2 14-1273)
[2] = target: spike protein of SARS-CoV-2 strain B.1.1.7 (SARS-CoV-2, UniProt P0DTC2 14-1273)
[3] = target: spike protein of SARS-CoV-2 strain B.1.351 (SARS-CoV-2, UniProt P0DTC2 14-1273)
[4] = target: spike protein of SARS-CoV-2 strain P.1 (SARS-CoV-2, UniProt P0DTC2 14-1273)

Binder	IC50 (FRNT neutralisation) [1]	IC50 (FRNT neutralisation) [2]	IC50 (FRNT neutralisation) [3]	IC50 (FRNT neutralisation) [4]	FRNT50 ratio B.1.1.7/Victoria [2]	FRNT50 ratio B.1.351/Victoria [3]	FRNT50 ratio P.1/Victoria [4]
antibody 269 (antibody, V domains shown, also called mAb 269) VH: QVQLVESGGGLIQPGGSLRLSCAASGLTVNRNYMSWIRQAPGKGLEWVSVIYSGGSTFYADSVKGRFTISRDNSKNTLSLQMNSLRAEDTAIYYCARDFYEGSFDIWGQGTMVTVSS VL: AIQLTQSPSFLSASIGDRVTITCRASQGISSYLAWYQQKPGKAPKLLIYAASTLQSGVPSRFSGSGSGTEFTLTISSLQPEDFASYYCQQLNSYPAPVFGPGTKVDIK	0.03 µg/mL	> 10 µg/mL	> 10 µg/mL	> 10 µg/mL	–	–	–
antibody 278 (antibody, V domains shown, also called mAb 278) VH: QVQLVQSGAEVKKPGASVKVSCKASGYIFIRYGISWVRQAPGQGLEWMGWISANNGYTNYAQKLQGRVTMTTDTSTSTAYMELRSLRSDDTAVYYCARDGGILTGYLDYFDHWGQGTLVTVSS VL: DIQMTQSPSSLSASVGDRLTITCRASQSIASYLNWYQQKPGKAPKLLIYAASSLQSGVPSRFSGSGSGTDFTLTISSLQPEDFATYHCQQSYSTLGITFGPGTKVDIK	0.014 µg/mL	0.307 µg/mL	0.16 µg/mL	0.245 µg/mL	–	–	–
antibody 222 (antibody, V domains shown) VH: EVQLVESGGGLIQPGGSLRLSCAASGLTVSSNYMSWVRQAPGKGLEWVSVIYSGGSTFYADSVKGRFTISRDNSKNTLYLQMNSLGAEDTAVYYCARGEGSPGNWFDPWGQGTLVTVSS VL: DVVMTQSPGTLSLSPGERATLSCRASQSVPSSYLAWYQQKPGQAPRLLIYGASTRATGIPDRFSGSGSGTDFTLTISRLEPEDFAVYYCQHYDTSPRFGGGTKVDIK	0.019 µg/mL and 0.017 µg/mL	0.014 µg/mL and 0.011 µg/mL	0.017 µg/mL and 0.016 µg/mL	0.008 µg/mL and 0.009 µg/mL	–	–	–
antibody 175 (antibody, V domains shown, also called mAb 175) VH: EVQLVESGGGLIQPGGSLRLSCAASGLTVSRNYMSWVRQAPGKGLEWVSLIYSGGSTYYADSVKGRFTISRDNSKNTLYLQMNSLRAEDTAVYYCARDLRGEVWGQGTMVTVSS VL: not shown	0.026 µg/mL	0.575 µg/mL	> 10 µg/mL	3.88 µg/mL	–	–	–
antibody 158 (antibody, V domains shown, also called mAb 158) VH: EVQLLESGGDLIQPGGSLRLSCAASGVTVSSNYMSWVRQAPGKGLEWVSIIYPGGSTFYADSVKGRFTISRDNSKNTLYLQMHSLRAEDTAVYYCARDLGSGDMDVWGKGTTVTVSS VL: DIVMTQSPSFLSASVGDRVTITCRASQGISSYLAWYQQKPGKAPKLLIQAASTLQSGVPSRFSGSGSGTEFTLTISSLQPEDFATYYCQQLNSYRYTFGQGTKVEIK	0.031 µg/mL	0.254 µg/mL	> 10 µg/mL	> 10 µg/mL	–	–	–
antibody 281 (antibody, V domains shown) VH: QVQLVESGGGLVQPGGSLRLSCAASGFPFSIYWMSWVRQAPGKGLEWVANIKQDGSEKYYVDSVKGRFTISRDNAKNSLYLHMNSLRGEDTAVYYCASRYYDFRPEAWFDYWGQGTLVTVSS VL: not shown	0.005 µg/mL	0.012 µg/mL	> 10 µg/mL	> 10 µg/mL	–	–	–
antibody 253H165L (antibody, V domains shown) VH: not shown VL: DIVMTQSPGTLSLSPGERATLSCRASQSVRSSYLAWYQQKPGQAPRLLIYGASRRGTGIPDRFSGSGSGTDFTLTISRLEPEDFAVYYCQQYGSSPWTFGQGTKVEIK	0.003 µg/mL	0.006 µg/mL	0.013 µg/mL	0.019 µg/mL	–	–	–
antibody 165 (antibody, V domains shown, also called mAb 165) VH: QVQLVQSGPEVKKPGTSVKVSCKASGFTFTSSAVQWVRQARGQRLEWIGWIVVGSGNTNYAQKFQESVTITRDMSTSTAYMELSSLRSEDTAVYYCAAPHCIGGSCHDAFDIWGQGTMVTVSS VL: DIVMTQSPGTLSLSPGERATLSCRASQSVRSSYLAWYQQKPGQAPRLLIYGASRRGTGIPDRFSGSGSGTDFTLTISRLEPEDFAVYYCQQYGSSPWTFGQGTKVEIK	0.034 µg/mL	0.212 µg/mL	0.054 µg/mL	0.241 µg/mL	–	–	–
antibody 316 (antibody, V domains shown) VH: not shown VL: QAVLTQPPSASGSPGQSVTISCTGTSSDVGGYNYVSWYQQHPGKAPKLMIYEVSKRPSGVPDRFSGSKSGNTASLTVSGLQAEDEADYYCSSYAGSNHWVFGGGTKLTVL	0.018 µg/mL	0.024 µg/mL	> 10 µg/mL	> 10 µg/mL	–	–	–
antibody 150 (antibody, V domains shown) VH: QVQLVESGGGLIQPGGSLRLSCAASGVTVSSNYMSWVRQAPGKGLEWVSIIYSGGTTYYADSVKGRFTISRDSSMNTLYLQMNSLRAEDTAVYYCARDLMVYGIDVWGQGTTVTVSS VL: EIVMTQSPSSLSASVGDRVTITCRASQGISSYLAWYQQKPGKAPKLLIYAASTLQSGVPSRFSGSGSGTDFTLTISSLQPEDFATYYCQQLDSYPPGYTFGQGTKVDIK	0.012 µg/mL	0.139 µg/mL	0.35 µg/mL	0.04 µg/mL	12	30	3.4
antibody 132 (antibody, V domains shown) VH: QVQLQQWGAGLLKPSETLSLTCAVYGGSFSGYYWSWIRQPPGKGLEWIGEINHSGSTNYNPSLKSRVTISVDTSKNQFSLKLSSVTAADTAVYYCARTDYYDSIDWGQGTLVTVSS VL: QSVLTQEPSLTVSPGGTVTLTCGSSTGAVTSGHYPYWFQQKPGQVPRTLIYDTRNKHSWTPARFSGSLLGGKAALTLSGAQPEDEAEYYCLLSSSGARVFGGGTKLTVL	0.048 µg/mL	0.337 µg/mL	> 10 µg/mL	> 10 µg/mL	7	> 208	> 208
antibody 170 (antibody, V domains shown) VH: QVQLVESGAEVKKPGESLKISCKGSGYSFTSYWIVWVRQMPGKGLEWMGIIYPGDSDTKYSPSFQGQVSISADKPISTAYLQWSRLKASDTAMYYCARLGNWLVDYWGQGTLVTVSS VL: DIVMTQSPLSLSVTPGQPASISCKSSQSLLHSDGKTYLYWYLQKPGQPPQLLMYEVSNRFSGVPDRFSGSGSGTDFTLKISRVESEDVGVYYCMQSIQLPRGITFGQGTRLEIK	0.025 µg/mL	0.105 µg/mL	> 10 µg/mL	> 10 µg/mL	4.2	> 402	> 402
antibody 88 (antibody, V domains shown, also called mAb 88) VH: QLQLQESGPGLVKPSQTLSLTCTVSGGSISSGSYNWTWIRQPAGKGLEWIGRIYNSGSTNYNPSLKSRVTISVDTSKNQLSLKVRSVTAADTAVYYCARHCSGGTCYPKYYYGMDVWGQGTTVTVSS VL: QSALTQPPSVSEAPRQRVTISCSGSSSNIGNNAVNWYQQFPGKAPKLLIYYDDLLPSGVSDRFSGSKSGTSASLAISGVQSEDEADYYCAAWDDSLNVVVFGGGTKLTVL	0.033 µg/mL	0.058 µg/mL	> 10 µg/mL	> 10 µg/mL	–	–	–

— US20240043507A1 (RQ BIOTECHNOLOGY, published 2024)
